Reference: paper PMC4950008

biological target: T1, His-GlnR (UniProt O53830); test: EMSA
T1 sequence: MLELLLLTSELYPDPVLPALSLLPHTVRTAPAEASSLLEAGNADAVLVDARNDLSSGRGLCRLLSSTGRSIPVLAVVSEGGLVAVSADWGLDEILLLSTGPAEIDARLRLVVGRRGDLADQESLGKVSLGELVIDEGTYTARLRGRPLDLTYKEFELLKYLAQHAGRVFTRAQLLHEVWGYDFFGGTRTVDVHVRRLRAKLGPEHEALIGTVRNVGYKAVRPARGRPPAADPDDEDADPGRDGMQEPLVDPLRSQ

Which binding does the source give for “CACAGACTCCATCTGTTGGGGGTTCAACGGGGATTCAACCGGACACTTAGCGCCACTATTGAATATGAATATCATTTGAACGAGAGGTTAACACAGCGTGACGACGGCCCAGGGCGGTGAGTTTGGTCACACGAGCGCTGGGCTCACCACCCCATGCTGGTGGGATTTAGC (double strand) [peak 13, Rv1386 (PE15) promoter region]” here?
Its binding is “binds”.

With “GTACGTCCACAATCGAAGGACGCGGAAGCACGGGGCCGCGACCACCGAGACCCGTGGCGGCCCATGGCCGCAAGGAGGCTCCTCGCGAGATTCGTCACGCGTTACCTGGATTTAACCTGCGCCCGTCCGAAGCGCCCGGCTTTTTCGTAGGCTTCGCTGCGGTTGGGGCCAGACAGCGCCGTGAAGCCCGGTGGGTGTGGCCGGCTGACGGGATGGT (double strand) [peak 18, Rv1548c (PPE22)/Rv1549 (fadD11) promoter region]” as the sequence, how does the binding read?
Its binding is “binds”.

For “ACTCCCTGCGGCAAGGTGTAGGCCAGCTCGCGCAACTTAACCGCGCACTCGTAGAGCGTCTGGCGGAAATGCGTTTCGGTCATCGGGGTGCCTTCGCTCGTCGGCGAGATCGGCAGCGGTGTCTTGTGCTCATACAGATCAATCTCATTCATCAGAGCCATCATTCGCCGGCTAGCAGCTGCAAATCATCAGCACATCCACGTATGTC (double strand) [Rv1360 upstream region (negative control)]”, which binding is on record?
Its binding is “no binding”.

“CATGAGCTGATGAATGGAGTCCACTACCGGCCGGTGCGGCGACCAAGGATCTGTTTGCGACGGGATCTGTGCGACGTTGGCGGCAATCAGCTTGTTACAGCTGATAATCCGAGCGTGATCGCGACCTAACCGGCAGGCAACGCCGGCATGGTCCCCTGGCACGATGGGACTACTGTCACGCTTGCGCAAACGTGAGCCGATCAGCATCTACGACAAGATC (double strand) [peak 17, Rv1542c (glbN) promoter region]” was tested. Which binding did it give?
The binding was “binds”.
